Results published in patent publication US20250051458A1, “Methods for Treating Neurodegeneration Targeting IGF1/IGF1R” (The Schepens Eye Research Institute, Inc., priority 2021, published 2025).

Legend:
[1] = tested on: microbead-induced glaucoma mice; format: in vivo, mouse
Experimental: For whole mounted retina staining, mouse eyeballs were fixed in 4% paraformaldehyde for 3 hours at room temperature or overnight at 4° C. fridge after sacrificing mice with carbon dioxide (CO2). Then retinas were dissected out and incubated with blocking buffer (3% donkey serum+1% BSA+0.1% Triton+0.1% Tween in 1×PBS) for 1-3 h RT. Then retinas were subjected to immunolabeling by incubation with primary antibody (Table 1) overnight at 4° C. After washing three times by washing buffer (0.1% Triton-100 in PBS), retinas were incubated with secondary antibody at room temperature for 2 hrs. After rinsing retina three times in washing buffer for 5-10 min on shaker, mount slide with Fluoroshield Mounting Medium with DAPI (Abcam, Cat. No. ab104139). Visualize under microscope (Leica, SP8). Secondary antibody: Streptavidin, Alexa Fluor 546 conjugate (1:1000, S11225, Invitrogen), Streptavidin, Alexa Fluor 488 conjugate (1:1000, S11223, Invitrogen), Cy2 Donkey Anti-rabbit (1:1000, 711-225-152, Jackson ImmunoResearch), Cy3 Donkey Anti-mouse (1:1000, 715-165-150, Jackson ImmunoResearch), Cy3 Donkey Anti-goat (1:1000, 705-165-147, Jackson ImmunoResearch).
Total RNA was extracted from retinas of adult mice or purified retinal microglial cells using RNeasy Plus Mini kit (Qiagen, 74134) or RNeasy Micro kit (Qiagen, 74004) following manufacturer's instruction. The RNA was reversely transcribed using Takara PrimeScript™ RT Master Mix (Takara Bio, RR036A). A mixture of master mix contained cDNA, 2× Master Mix from KAPA SYBR Fast qPCR kit and […] of specific primers was used to detect specific mRNA expression level using the Mastercycler ep realplex real-time PCR system (Eppendorf, Westbury, NY). The temperature of initial denaturation was set at 95° C. for 2 mins followed by 45 cycles of 15 seconds denaturation (95° C.), 15 seconds annealing (59° C.), and 20 seconds extension (68° C.), and lastly holding at 4° C. Relative amount of specific mRNA transcript was presented in fold changes by normalization to the expression level of the housekeeping gene glyceraldehyde 3-phosphate dehydrogenase (GAPDH). Expression was analyzed using the 2−ΔΔCt method. All primers were synthesized by Integrated DNA Technologies (USA).
Elevated IOP was induced unilaterally in adult mice (10-12 weeks old) as described previously^21. Briefly, the mice were anesthetized by i.p. injection of ketamine (120 mg/kg)/xylazine (20 mg/kg) mixture using 25-gauge needle. The pupil was dilated with tropical application of 1% Tropicamide followed by proparacaine HCl (0.5%; Baush & Lomb Incorporated, Tampa, FL) to numb the eye. An entry on the corneal was generated by a 30-gauge needle, and a small air bubble was injected into anterior chamber via a glass micropipette which was connected with a Hamilton syringe. 2 μl solution of 10 μm microspheres (9.0×10^7 beads/ml sterile saline; Thermo Fisher Scientific, Cat. No. F8833) was injected into anterior chamber with care to avoid damaging the iris and the lens. The micropipette will be withdrawn slowly after delivery of microbeads. Antibiotic ointment will be applied topically on the cornea after the injection, and then leave the operated mice to recover on a warm pad and monitored every 15 minutes until awake and fully sternal.
Mice were anesthetized by isoflurane inhalation (2-4%; Webster Veterinary, Sterling, MA) delivered in 100% Oxygen with a precision Vaporizer. The IOP was measured by TonoLab tonometer (Colonial Medical Supply) before and post-MB injection. An average of 6 IOP readings will be taken as one reading. At least […] readings of IOP level will be taken per mouse eye, and the mean of 3 readings represents the IOP level of a mouse eye. Baseline level of IOP in anesthetized mice was measured before induction of elevated IOP. Then the IOP was measured twice a week after microbeads injection induced IOP elevation. The IOP was measured at the same time in the morning to minimize the circadian variation. […]

[2] = tested on: Igf-1r conditional knock out on microglia mice; test: Microbead-induced glaucoma in mice with Igf-1r specific knock out on microglia; format: in vivo, mouse
Experimental: Adult (10-12 weeks old) male and female C57BL/6J (B6) (The Jackson Laboratory, 000664), Cx3cr1^GFP (The Jackson Laboratory, 005582), DBA/2J mice (The Jackson Laboratory, 000671) Igf1r^(lax) inducible knockout mice (The Jackson Laboratory, 012251) as well as Cx3cr1^tm2.1(cre/ERT2) mice were obtained from the Jackson Laboratory. Igf1r^(lax) mice were crossed with Cx3cr1^tm2.1(cre/ERT2) mice to generated Igf-1r specific knock out on microglia after 3 consecutive days injection of 100 mg/kg tamoxifen to mice. IGFBPL1 deficiency mice at a C57BL/6J genetic background (Knockout Mouse Project Repository, University of California at Davis) were used in following experiments. Mice of both genders were randomized into control and experimental groups. All experimental procedures and use of animals were approved and monitored by the Institute's Animal Care Committee and conform to the standards of the National Institute of Health and the Association for Research in Vision and Ophthalmology.
Elevated IOP was induced unilaterally in adult mice (10-12 weeks old) as described previously^21. […] Antibiotic ointment will be applied topically on the cornea after the injection, and then leave the operated mice to recover on a warm pad and monitored every 15 minutes until awake and fully sternal. […]

[3] = 14 days post glaucoma induction
[4] = intravitreal at day 3, 10 and 17 post IOP elevation

B1: IGFBPL1: insulin-like growth factor binding protein like protein 1; recombinant protein (R&D system, 4130-BL) (protein)
chain: LGLRDAGRRHPECSPCQQDRCPAPSPCPAPWISARDECGCCARCLGAEGASCGGPVGSRCGPGLVCASRASGTAPEGTGLCVCAQRGAVCGSDGRSYSSICALRLRARHAPRAHHGHLHKARDGPCEFAPVVLMPPRDIHNVTGTQVFLSCEVKAVPTPVITWKKVKHSPEGTEGLEELPGDHVNIAVQVRGGPSDHETTSWILINPLRKEDEGVYHCHAANAIGEAQSHGTVTVLDLNRYKSLYSSVPGDLL
B1 was tested, and the “Contrast sensitivity (CS) and visual acuity (VA) by optomotor response” value ([1]; 4- and 8-weeks post glaucoma induction) was “restored CS and VA”, the “Expression of pro-inflammatory cytokines (C1q, Tnfα, Il-1β, Il-1α) in glaucoma retina” value [1, 3] was “remarkably reduced” and the “Level of activated microglia markers (Iba-1, Ym-1, Nox-2, Cd163) in retina by qPCR” value [1, 3] was “dramatically down-regulate”. The “Reactive astrocyte number and GFAP level in retina” value ([1]; day 14 post glaucoma induction) was “significantly restored”, the “RGC quantification compared with baseline” value [1, 4] was “no significant difference with baseline” and the “RGCs loss and dysfunction from glaucomatous damages” value [1, 4] was “significantly prevented RGCs loss and dysfunction”. The “IBA-1+ microglia activation (morphology, cell density) in retina” value ([1]; intravitreal at day 3 and 10, 2 wks post glaucoma-induced injury) was “reverse activated microglia into resting state”, the “pSTR amplitude (ERG) compared with baseline” value ([1]; mouse, in vivo) was “no significant difference with baseline” and the “pSTR amplitude and RGCs (neuroprotective effect)” value ([2]; IGFBPL1 at day 3, 10 and 17 post microbeads-induced glaucoma, IGF-1R knocked out on microglia) was “neuroprotective effects diminished”. The “Contrast sensitivity (CS) and visual acuity (VA)” value ([2]; Igf-1r−/− mice with MB induced glaucoma) was “very limited protective capacity”.
